In publication PMC12120888, “Phosphorylation of MdWRKY70L by MdMPK6/02G mediates reactive oxygen accumulation to regulate apple fruit senescence”:
Substitutions are numbered along the chain they refer to.

T1: MdWRKY70L (Malus domestica, UniProt A0A7S5EAY7 1-303)
T1 sequence: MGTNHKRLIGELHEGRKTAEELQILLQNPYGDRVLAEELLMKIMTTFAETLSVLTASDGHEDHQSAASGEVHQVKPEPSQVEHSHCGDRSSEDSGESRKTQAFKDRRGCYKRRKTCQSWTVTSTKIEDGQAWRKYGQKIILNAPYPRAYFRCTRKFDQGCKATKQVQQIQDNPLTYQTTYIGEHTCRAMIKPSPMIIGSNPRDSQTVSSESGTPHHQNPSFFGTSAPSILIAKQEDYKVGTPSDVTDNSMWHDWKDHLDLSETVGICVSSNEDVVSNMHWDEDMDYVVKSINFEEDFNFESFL

B1: MdSAG101 W-box hot probe (dsDNA)
DNA 1: TCTATATAAAGAGAGACATATTGACCATTCCGGTATCCTCTTCTCT
DNA 2: AGAGAAGAGGATACCGGAATGGTCAATATGTCTCTCTTTATATAGA
B2: MdSAG101 W-box mutant probe (dsDNA)
DNA 1: B1 DNA 1 with T22C, A24G, C26T
DNA 2: B1 DNA 2 with G21A, T23C, A25G
B3: MdSAG101 W-box cold probe (dsDNA)
DNA 1: B1 DNA 1
DNA 2: B1 DNA 2
B4: MdZAT12 W-box hot probe (dsDNA)
DNA 1: CATTGATCTGGATTTCTGTGCTGACTCAGACTCATCGTGGATGCTT
DNA 2: AAGCATCCACGATGAGTCTGAGTCAGCACAGAAATCCAGATCAATG
B5: MdZAT12 W-box cold probe (dsDNA)
DNA 1: B4 DNA 1
DNA 2: B4 DNA 2
B6: MdZAT12 W-box mutant probe (dsDNA)
DNA 1: B4 DNA 1 with T22G, A24C, T26G
DNA 2: B4 DNA 2 with A21C, T23G, A25C

Experiments:
MdWRKY70L [1] = biological target: T1, MdWRKY70L; assay: EMSA; LightShift Chemiluminescent EMSA kit (Thermo); buffer, salt, pH and temperature not stated; settings: protein: recombinant; tags: GST (Results); His (EMSA Methods, pET32a); label: 3' biotin, both strands; blunt
MdWRKY70L [2] = biological target: T1, MdWRKY70L; assay: competition; 25x, 50x, 100x cold probe vs hot probe N3; LightShift Chemiluminescent EMSA kit (Thermo); buffer, salt, pH and temperature not stated; settings: protein: recombinant; tags: GST (Results); His (EMSA Methods, pET32a); blunt
MdWRKY70L [3] = biological target: T1, MdWRKY70L; assay: competition; 25x, 50x, 100x cold probe vs hot probe N1; LightShift Chemiluminescent EMSA kit (Thermo); buffer, salt, pH and temperature not stated; settings: protein: recombinant; tags: GST (Results); His (EMSA Methods, pET32a); blunt

Row | Binder | binding result (MdWRKY70L [1]) | also measured
1 | B1 | binds | –
2 | B2 | no binding | –
3 | B3 | – | binding result (MdWRKY70L [2]): binds
4 | B4 | binds | –
5 | B5 | – | binding result (MdWRKY70L [3]): binds
6 | B6 | no binding | –
